We go through four molecules from paper PMC3462211, “3D Domain Swapping Causes Extensive Multimerisation of Human Interleukin-10 When Expressed In Planta” (PLoS ONE, 2012).

Data set [1] concerns the target human IL-10 fused to the C-terminus of constant domains 2 and 3 of human immunoglobulin A2m1 (Fcα-hIL-10), plant produced (human) (UniProt P22301). Put plainly: non-reducing SDS-PAGE with Western blot; soluble plant proteins (crude leaf extract, desalted on G25 Sephadex, filter sterilised) separated under non-reducing conditions on a NuPAGE 12% Bis-Tris gel; detected with antibodies against hIL-10 or IgA.

In data set [2] the target is human IL-10^mono fused to the C-terminus of constant domains 2 and 3 of human immunoglobulin A2m1 (Fcα-hIL-10^mono), plant produced (human) (UniProt P22301). The data set is described as above.
Data set [3] concerns the molecule itself. The data set is described as above.
Data set [4] concerns the molecule itself. The experiment in a line: non-reducing SDS-PAGE with Western blot; 50 ng recombinant E. coli produced hIL-10 (R&D Systems) separated under non-reducing conditions on a NuPAGE 12% Bis-Tris gel; detected with an antibody against hIL-10.

For the molecule “human IL-10 fused to the C-terminus of constant domains 2 and 3 of human immunoglobulin A2m1 (Fcα-hIL-10), plant produced (from UniProt P22301 19-178) (Fc fusion)”, in data set [1], the stoichiometry N worked out at 2.
With “human IL-10^mono fused to the C-terminus of constant domains 2 and 3 of human immunoglobulin A2m1 (Fcα-hIL-10^mono), plant produced (from UniProt P22301 19-178) (Fc fusion)”, in data set [2], the stoichiometry N amounted to 2.

B1: plant produced human interleukin-10 (natural protein, UniProt P22301 19-178, looked up)
chain: SPGQGTQSENSCTHFPGNLPNMLRDLRDAFSRVKTFFQMKDQLDNLLLKESLLEDFKGYLGCQALSEMIQFYLEEVMPQAENQDPDIKAHVNSLGENLKTLRLRLRRCHRFLPCENKSKAVEQVKNAFNKLQEKGIYKAMSEFDIFINYIEAYMTMKIRN
notes: signal peptide in the construct; human interleukin-10, complete native open reading frame (178 amino acids including the N-terminal signal peptide); the NcoI site adds two extra amino acids to the N-terminus of the signal peptide; Secreted through its own signal peptide; also called hIL-10; human IL-10; source: Nicotiana benthamiana leaves, agro-infiltrated (transient), in desalted crude extract
For B1, the “stoichiometry N” value in data set [3] is no less than 2.

B2: recombinant E. coli produced human IL-10 (natural protein, UniProt P22301 19-178, looked up)
chain: SPGQGTQSENSCTHFPGNLPNMLRDLRDAFSRVKTFFQMKDQLDNLLLKESLLEDFKGYLGCQALSEMIQFYLEEVMPQAENQDPDIKAHVNSLGENLKTLRLRLRRCHRFLPCENKSKAVEQVKNAFNKLQEKGIYKAMSEFDIFINYIEAYMTMKIRN
notes: human interleukin-10, recombinant, E. coli produced, 18 kDa on the blot; also called r hIL-10; E. coli produced hIL-10; source: bought: R&D Systems (recombinant, E. coli produced)
With B2, the “stoichiometry N” value in data set [4] was no less than 2.
